Reference: article PMC3932411

How the values were obtained:
I-V relationship = settings: glycan lost; control: wild type
[1] = cell surface biotinylation, Western blot; settings: glycan lost; control: wild type

B1: TRPM5: N932Q (protein)
parent chain: MQDVQGPRPGSPGDAEDRRELGLHRGEVNFGGSGKKRGKFVRVPSGVAPSVLFDLLLAEWHLPAPNLVVSLVGEEQPFAMKSWLRDVLRKGLVKAAQSTGAWILTSALRVGLARHVGQAVRDHSLASTSTKVRVVAVGMASLGRVLHRRILEEAQEDFPVHYPEDDGGSQGPLCSLDSNLSHFILVEPGPPGKGDGLTELRLRLEKHISEQRAGYGGTGSIEIPVLCLLVNGDPNTLERISRAVEQAAPWLILVGSGGIADVLAALVNQPHLLVPKVAEKQFKEKFPSKHFSWEDIVRWTKLLQNITSHQHLLTVYDFEQEGSEELDTVILKALVKACKSHSQEPQDYLDELKLAVAWDRVDIAKSEIFNGDVEWKSCDLEEVMVDALVSNKPEFVRLFVDNGADVADFLTYGRLQELYRSVSRKSLLFDLLQRKQEEARLTLAGLGTQQAREPPAGPPAFSLHEVSRVLKDFLQDACRGFYQDGRPGDRRRAEKGPAKRPTGQKWLLDLNQKSENPWRDLFLWAVLQNRHEMATYFWAMGQEGVAAALAACKILKEMSHLETEAEAARATREAKYERLALDLFSECYSNSEARAFALLVRRNRCWSKTTCLHLATEADAKAFFAHDGVQAFLTRIWWGDMAAGTPILRLLGAFLCPALVYTNLITFSEEAPLRTGLEDLQDLDSLDTEKSPLYGLQSRVEELVEAPRAQGDRGPRAVFLLTRWRKFWGAPVTVFLGNVVMYFAFLFLFTYVLLVDFRPPPQGPSGPEVTLYFWVFTLVLEEIRQGFFTDEDTHLVKKFTLYVGDNWNKCDMVAIFLFIVGVTCRMLPSAFEAGRTVLAMDFMVFTLRLIHIFAIHKQLGPKIIVVERMMKDVFFFLFFLSVWLVAYGVTTQALLHPHDGRLEWIFRRVLYRPYLQIFGQIPLDEIDEARVNCSTHPLLLEDSPSCPSLYANWLVILLLVTFLLVTNVLLMNLLIAMFSYTFQVVQGNADMFWKFQRYNLIVEYHERPALAPPFILLSHLSLTLRRVFKKEAEHKREHLERDLPDPLDQKVVTWETVQKENFLSKMEKRRRDSEGEVLRKTAHRVDFIAKYLGGLREQEKRIKCLESQINYCSVLVSSVADVLAQGGGPRSSQHCGEGSQLVAADHRGGLDGWEQPGAGQPPSDT
Question: With B1 as the protein, how does the “other: channel biophysical properties” value (I-V relationship) read?
Answer: Its value is “no change”.

Question: What about the localisation_or_trafficking [1] of the same protein?
Answer: Its localisation_or_trafficking is “no change”.
